Results on 6 molecules are retold here after doi:10.1101/2023.07.20.549907, “Mechanism of outer kinetochore assembly on microtubules and its regulation by mitotic error correction” (bioRxiv, 2023).

B2: Dam1 subunit of the Dam1 complex (natural protein, S. cerevisiae, UniProt P53267 1-343, looked up)
chain: MSEDKAKLGTTRSATEYRLSIGSAPTSRRSSMGESSSLMKFADQEGLTSSVGEYNENTIQQLLLPKIRELSDSIITLDSNFTRLNFIHESLADLNESLGSLLYGIMSNSWCVEFSQAPHDIQDDLIAIKQLKSLEDEKNNLVMELSNMERGIKRKKDEQGENDLAKASQNKQFNQPLFPSSQVRKYRSYDNRDKRKPSKIGNNLQVENEEDYEDDTSSEASFVLNPTNIGMSKSSQGHVTKTTRLNNNTNSKLRRKSILHTIRNSIASGADLPIENDNVVNLGDLHPNNRISLGSGAARVVNGPVTKNRNSMFSGRAERKPTESRHSVAKKTEKKINTRPPFR
notes: Dam1 subunit of the S. cerevisiae Dam1 complex; Stood in the structure as part of the whole Dam1 complex; also called Dam1^Staple (residues 1-26); Dam1^C-ter; source: as subunit of m2
B3: Spc34 subunit of the Dam1 complex (natural protein, S. cerevisiae, UniProt P36131 1-295, looked up)
chain: MGESLDRCIDDINRAVDSMSTLYFKPPGIFHNAILQGASNKASIRKDITRLIKDCNHDEAYLLFKVNPEKQSVSRRDGKEGVFDYVIKRDTDMKRNRRLGRPGEKPIIHVPKEVYLNKDRLDLNNKRRRTATTSGGGLNGFIFDTDLIGSSVISNSSSGTFKALSAVFKDDPQIQRLLYALENGSVLMEEESNNQRRKTIFVEDFPTDLILKVMAEVTDLWPLTEFKQDYDQLYHNYEQLSSKLRFIKKEVLLQDDRLKTMSQYHPSSSHDVAKIIRKEKDEIRRLEMEIANLQE
notes: Spc34 subunit of the S. cerevisiae Dam1 complex; Stood in the structure as part of the whole Dam1 complex; source: as subunit of m2

What all share (test): cryo-EM structure; complexes assembled on cryo-EM grids by step-wise addition of taxol-stabilized microtubule filaments, Ndc80c and Dam1c; sub-boxing, signal subtraction and symmetry expansion for the separate reconstructions
What all share (conditions): both partners purified

In test [1] the target is B2.
Test [2] deals with T1, Ndc80 subunit of the Ndc80 complex (S. cerevisiae, UniProt P40460 1-691).
T1 construct: Ndc80 subunit of the budding yeast Ndc80 complex; Stood in the structure as part of the Ndc80 complex; also called Ndc80^CH; Ndc80^CC; source: as subunit of m1
T1 sequence (P40460 whole entry, one chain of several): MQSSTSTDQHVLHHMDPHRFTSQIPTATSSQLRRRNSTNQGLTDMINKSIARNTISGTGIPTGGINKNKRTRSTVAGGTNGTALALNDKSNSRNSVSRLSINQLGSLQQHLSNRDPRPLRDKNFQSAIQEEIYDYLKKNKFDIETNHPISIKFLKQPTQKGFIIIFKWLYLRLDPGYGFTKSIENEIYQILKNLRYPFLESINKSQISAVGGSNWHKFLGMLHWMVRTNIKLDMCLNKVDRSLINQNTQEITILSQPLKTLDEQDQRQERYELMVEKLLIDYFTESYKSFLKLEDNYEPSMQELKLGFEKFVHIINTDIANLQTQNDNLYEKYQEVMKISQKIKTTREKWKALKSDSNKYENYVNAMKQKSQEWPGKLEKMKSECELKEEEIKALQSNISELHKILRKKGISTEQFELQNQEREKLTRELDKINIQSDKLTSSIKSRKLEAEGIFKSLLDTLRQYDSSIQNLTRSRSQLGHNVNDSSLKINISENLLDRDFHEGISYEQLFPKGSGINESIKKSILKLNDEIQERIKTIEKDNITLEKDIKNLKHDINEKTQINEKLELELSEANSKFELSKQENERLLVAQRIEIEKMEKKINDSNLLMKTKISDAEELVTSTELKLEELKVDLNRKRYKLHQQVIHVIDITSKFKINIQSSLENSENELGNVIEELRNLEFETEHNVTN

Test [3] concerns the target T2, Nuf2 subunit of the Ndc80 complex (S. cerevisiae, UniProt P33895 1-451).
T2 construct: Nuf2 subunit of the budding yeast Ndc80 complex; Stood in the structure as part of the Ndc80 complex; also called Nuf2^CH; Nuf2^CC; source: as subunit of m1

The target in test [4] is T3, Ndc80 complex (Ndc80, Nuf2, Spc24, Spc25), budding yeast (S. cerevisiae, UniProt P40460 1-691; P33895 1-451; Q04477 1-213; P40014 1-221).
T3 construct: Ndc80 subunit of the budding yeast Ndc80 complex; Nuf2 subunit of the budding yeast Ndc80 complex; Spc24 subunit of the budding yeast Ndc80 complex; Spc25 subunit of the budding yeast Ndc80 complex; Complex used for cryo-EM; Spc24-Spc25 gave no cryo-EM density; copies: + + +
T3 sequence (P40460 whole entry, chain 1 of 4): as the sequence (P40460 whole entry, one chain of several) above
T3 sequence (P33895 whole entry, chain 2 of 4): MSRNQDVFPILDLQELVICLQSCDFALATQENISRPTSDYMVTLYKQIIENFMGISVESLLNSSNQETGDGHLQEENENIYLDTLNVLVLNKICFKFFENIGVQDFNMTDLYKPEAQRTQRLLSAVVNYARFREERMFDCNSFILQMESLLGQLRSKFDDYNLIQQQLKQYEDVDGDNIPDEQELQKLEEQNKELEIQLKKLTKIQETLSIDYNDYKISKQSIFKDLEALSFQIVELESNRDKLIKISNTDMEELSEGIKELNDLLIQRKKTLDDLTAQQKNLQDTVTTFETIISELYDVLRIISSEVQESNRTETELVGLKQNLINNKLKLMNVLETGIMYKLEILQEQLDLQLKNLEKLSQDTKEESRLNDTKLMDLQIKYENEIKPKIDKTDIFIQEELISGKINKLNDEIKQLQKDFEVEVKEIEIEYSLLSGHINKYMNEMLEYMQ
T3 sequence (Q04477 whole entry, chain 3 of 4): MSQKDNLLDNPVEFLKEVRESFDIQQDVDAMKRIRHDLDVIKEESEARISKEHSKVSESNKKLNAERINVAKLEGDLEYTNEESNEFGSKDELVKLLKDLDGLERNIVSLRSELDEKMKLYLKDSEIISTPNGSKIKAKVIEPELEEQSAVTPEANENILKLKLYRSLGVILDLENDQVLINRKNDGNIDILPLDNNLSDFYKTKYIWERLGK
T3 sequence (P40014 whole entry, chain 4 of 4): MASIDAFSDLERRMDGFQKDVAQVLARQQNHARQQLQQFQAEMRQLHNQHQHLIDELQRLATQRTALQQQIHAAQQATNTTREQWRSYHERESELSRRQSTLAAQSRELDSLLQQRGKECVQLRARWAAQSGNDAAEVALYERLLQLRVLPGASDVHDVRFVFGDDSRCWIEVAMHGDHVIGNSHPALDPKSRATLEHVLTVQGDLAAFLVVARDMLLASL

Test [5] deals with B3.

T2 sequence (P33895 whole entry, one chain of several): as the sequence (P33895 whole entry, chain 2 of 4) above

B1: Dad1 subunit of the Dam1 complex (natural protein, S. cerevisiae, UniProt Q12248 1-94, looked up)
chain: MMASTSNDEEKLISTTDKYFIEQRNIVLQEINETMNSILNGLNGLNISLESSIAVGREFQSVSDLWKTLYDGLESLSDEAPIDEQPTLSQSKTK
notes: Dad1 subunit of the S. cerevisiae Dam1 complex; Stood in the structure as part of the whole Dam1 complex; also called Dad1^A; source: as subunit of m2
Turning to B1, in test [1], the binding result was “binds”.
As for B2, the binding result in test [2] and in test [3] was “binds” each time.
In the case of B3, the binding result in test [4] was “binds”.

B4: Ask1 subunit of the Dam1 complex (natural protein, S. cerevisiae, UniProt P35734 1-292, looked up)
chain: MDSASKEETLEKLDQEITVNLQKIDSNLSFCFHKITQDIIPHVATYSEICERIMDSTEWLGTMFQETGLVNLQANAAAPVGNAPVKSLVSNNVGIFPTSAEEASRQSQTDNGPNEADSAVHVNRDVHSMFNNDSIDDFHTANITSTGQILKLPDSSDEDTGSEAVPSREQTDLTGEGHGGADDEQDESTIQRQSRKRKISLLLQQQYGSSSSMVPSPIVPNKMRKQLAHEEHINNDGDNDDENSNNIESSPLKQGHHHPKGQADDNNEGPDEEESTKEVPKPGTIIHFSTNR
notes: Ask1 subunit of the S. cerevisiae Dam1 complex; Stood in the structure as part of the whole Dam1 complex; also called Ask1^B; source: as subunit of m2
B4: the binding result in test [1] is recorded as “binds”.

B5: Spc19 subunit of the Dam1 complex (natural protein, S. cerevisiae, UniProt Q03954 1-165, looked up)
chain: MTDALEQSVLALEGTVSVLKDSVESLKCANEPSTNLASTMLQTKRVFRLVPEYDVERSKLDLIEEVEPLVRTLGDKLRKSMGRMQRELDTLQQTYELNDLRLKKNISMDDDDALNSPDMGQEYEGRDADDVVMMASSTNEELEELKKLKEKKKQLENKLEILKQK
notes: Spc19 subunit of the S. cerevisiae Dam1 complex; Stood in the structure as part of the whole Dam1 complex; source: as subunit of m2
Turning to B5, the binding result in test [5] and in test [2] was “binds” throughout.

B6: Dad4 subunit of the Dam1 complex (natural protein, S. cerevisiae, UniProt P69851 1-72, looked up)
chain: MENPHEQVQANILSRIIGNVKRLNESVAILNQELVTINNRNKNLEIMGAICDNYHSSVQFNLEATNNKKPPL
notes: Dad4 subunit of the S. cerevisiae Dam1 complex; Stood in the structure as part of the whole Dam1 complex; also called Dad4^B; source: as subunit of m2
For the molecule B6, the binding result in test [1] is recorded as “binds”.
